T1: OX40 on OX40-overexpressing cells (OX40过表达细胞表面OX40) (UniProt P43489 29-277, limits assumed)
T1 construct: whole, on cells; The cell line and the construct of the overexpressing cells are not described; also called CD134; TNFRSF4
T1 sequence (looked up): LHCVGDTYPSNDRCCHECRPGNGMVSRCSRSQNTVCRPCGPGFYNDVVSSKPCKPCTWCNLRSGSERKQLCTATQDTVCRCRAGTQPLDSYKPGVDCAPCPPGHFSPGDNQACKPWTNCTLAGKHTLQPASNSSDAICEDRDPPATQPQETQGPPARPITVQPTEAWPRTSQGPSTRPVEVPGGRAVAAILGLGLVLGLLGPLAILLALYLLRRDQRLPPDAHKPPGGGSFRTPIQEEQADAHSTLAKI


target: T1, OX40 on OX40-overexpressing cells …; experiment: flow cytometry, hybridoma supernatant on OX40-overexpressing cells, goat anti-mouse IgG-PE

| Binder | Y586通道PE荧光值 |
| --- | --- |
| 24F10-1 (antibody, V domains shown) VH: QVQLQESGPGLVKPSGNLSLTCVVSGASIINNNWWTWVRQSPGKGLEWIGEIFHSGTTNYNPSLKNRVTISVDKAKNQFSLNLKSVTAADTAVYYCVAYVSGTYYNFDYWGQGTLVTVSS VL: not shown | 274000 |
| 30B1-3 (antibody, V domains shown) VH: not shown VL: EIVLTQSPGTLSLSPGERATFSCRASQSVSGSYLAWYQQKPGQAPRLLIHGASSRATGIPDRFSGSGSGTDFTLTISRLEPEDFAVYYCLQYGSSPLTFGGGTKVEIKR | 208000 |
| 24E10-4 (antibody, V domains shown) VH: QVQMQESGPGLVKPSGTLSLTCAVSGGSISSSKWWSWVRQPPGKGLEWIGEIYHSGSTNYNPSLKSRVTISIDKSKNQFSLRLTSVTAADTAVYYCARGDVLLWFGGQGTLVTVSS VL: EIVLTQSPGTLSLSPGERATLSCWASQSVSSTYLAWYQQKPGQAPRLLIYGASIRATGIPDRFSGSGSGTDFTLTISSLEPEDFAVYYCQQYGSSPITFGQGTRLEIKR | 344000 |
| 55H6-6 (antibody, V domains shown) VH: QVQLVQSGAEVKKPGASVKVSCKASGYTFTSYGISWVRQAPGQGLEWMGWISAYNGHTNYAQKLQGRVTMTTDTSTNTAYMELWSLRSDDTAVYYCTSDYGDYWGQGTLVTVSS VL: DVVVTQSPLSLPVTLGQPASISCRSSQSLVYSDGNTNLYWFQQRPGQSPRRLIYQVSNRDSGVPDRFSGSGSGTDFTLKISRVEAEDVGVYYCMQGTHWPPALTFGGGTEVEIKR | 479000 |
| 15A7-6 (antibody, V domains shown) VH: QVQLQESGPGLVKPSGTLSLTCAVSGGSINSSSWWSWVRQPPGKGLEWIGEIYHSGDTNYNPSLKSRVAISVDKSKNQFSLKLSSVTAADTAVYYCARDQADYFGSGNYVYWGQGTLVTVSS VL: EIVLMQYPGTLSLSSGERRVLSCRPSQSVSSSYLAWYQQKPGQAPRLLIYGASSRASGIPDRFSGSGSGTDFTLTISRLEPEDFAVYYCQQYGSLPITFGQGTRVEIKR | 181000 |

Reference: patent CN114106174A (SUZHOU SCENE MEDICAL SCIENCE AND TECH LIMITED COMPANY, dated 2022)
